In patent US20040126819A1:

Tests used:
[1] = target: GDNF receptors on E10 embryonic chick sympathetic neurons; experiment: saturation binding of 125I-GDNF to E10 chick sympathetic neurons, 4 C, filtration
[2] = target: GDNF receptors on E10 embryonic chick sympathetic neurons; experiment: steady-state saturation binding of 125I-GDNF to E10 embryonic chick sympathetic neurons, triplicates

B1: recombinant rat GDNF produced in Sf21 insect cells using a baculovirus expression system (ligand, UniProt Q07731 78-211, looked up)
chain: SPDKQAAALPRRERNRQAAAASPENSRGKGRRGQRGKNRGCVLTAIHLNVTDLGLGYETKEELIFRYCSGSCEAAETMYDKILKNLSRSRRLTSDKVGQACCRPVAFDDDLSFLDDSLVYHILRKHSAKRCGCI
modifications: labeled with Na-^125I by the chloramine-T method where used as tracer
- Kd [1]: 0.4 nM
- EC50 (read off the curve) [2]: 400 pM
